Patent publication US20240368568, “MODIFIED PRP43 HELICASE AND USE THEREOF” (QITAN TECHNOLOGY LTD., CHENGDU, published 2024)

Tests used:
[1] = target: Prp43-GP-2 (F181C/N623C/C508S) (Chaetomium thermophilum); assay: EMSA; no significant dissociation with or without TMAD; 120 nM protein, 30 nM DNA; conditions: tags: C-terminal G-path domain fusion; GST tag removed; label: FAM
Protocol: (§1) In this example, the binding of the N-terminus (M1-N60)-truncated wild-type Prp43 helicases or the modified protein constructs Prp43-GP and Prp43-GP-2 (F181C/N623C/C508S) to DNA, including the enhancement of nucleic acid binding following disulfide bond formation between mutant sites F181C and N623C in the mutants catalyzed by a TMAD catalyst, was assayed by an electrophoresis mobility shift assay.
(§2) The experimental procedures were as follows: 30 nM FAM fluorophore-labeled single-stranded poly-thymine substrate T44-37-FAM was added to a buffer (10 mM HEPES, 50 mM KCl, pH 7.0), the wild-type Prp43 helicase and the modified helicases […] and Prp43-GP-2 at a final concentration of 120 nM were separately added, and the mixture was incubated at 30° C. for 1.5 h; a TMAD cross-linking agent at a final concentration 1000 times that of the helicase was used for catalyzing the crosslinking of cysteines at mutation sites, and the mixture was incubated at 30° C. for 1.5 h.

[2] = target: Prp43-GP (T61-A764 fused to G-path domain of Pfa1) (Chaetomium thermophilum); assay: EMSA; milder dissociation than wild type; 120 nM protein, 30 nM DNA; conditions: tags: C-terminal G-path domain fusion; GST tag removed; label: FAM
Protocol: as §1, §2

TTTTTTTTTTTTTTTTTTTTTTTTTTTTTTTTTTTTTTTTTTTT (ssDNA, [FAM at T37 (from name)]) [T44-37-FAM poly-thymine substrate]: binds [1]; binds [2].
